The results in this text go back to article PMC8097376 (2021).

A word on the koff: it is the first-order rate constant of dissociation. A lower koff goes with slow dissociation. What is called IC50 is the concentration needed to halve the response being measured. Higher therefore signals weaker potency in that assay. One may read the Kd as the constant that tells how readily two partners part at equilibrium. Higher therefore signals a looser complex.

Assay [1] addresses T1, SARS-CoV-2 spike receptor-binding domain (RBD) (SARS-CoV-2, UniProt P0DTC2 319-541). The assay is described as follows: BLI. (In general: In BLI a coated tip is dipped into the sample, and binding shifts an interference pattern.)
In assay [2] the target is T1, SARS-CoV-2 spike receptor-binding ….
The target of assay [3] is S1 domain of the SARS-CoV-2 spike protein (SARS-CoV-2, UniProt P0DTC2 14-681).
The target of assay [4] is T1, SARS-CoV-2 spike receptor-binding …. The assay is described as follows: BLI. This is another data set of the same source.

B1: nanobody NM1223 (VHH)
VHH: EVQLVESGGGLVQPGGSLRLSCSASGFAFSSVSMSWVRLLPGKGTEWVAEIDRDGGNGNYEDSVKGRFTISRDNAKNTLFLQMNSLVPEDTALYYCRLGTRDHIMSGWGPGAPVTVSS
The molecule B1 showed a koff in assay [1] of 0.00027 s⁻¹.

B2: nanobody NM1224 (VHH)
VHH: DVQLVESGGSLVQPGGSLRLSCETSRSSLDAYAIGWFRQAPGKEREGVASISSSSMRTEYADSVKGRFTISRDNAKNTAYLDMNSLKPEDTAVYYCAAAGEYGRAWPGLDWYEFEYEGPGSPVTVSS
In turn, B2 yielded a koff in assay [1] of 0.00267 s⁻¹. The same molecule yielded a concentration for half-maximal inhibition (IC50) in assay [2] of 36.6 nM.

B3: nanobody NM1226 (VHH)
VHH: QVQLVESGGGSVQPGGSLRLSCLGSGSLDYYAIGWFRQAPGKEREGVSCIASSGDRTIYADSVKGRFTISRDYGKNTVYLQMNSLKPEDTAMYYCAALQGSYYYTGFVANEYDYWGQGAPVTVSS
In assay [1], B3 gave a koff of 0.00115 s⁻¹. The concentration for half-maximal inhibition (IC50) in assay [3] worked out at 1.44 nM.

B4: nanobody NM1227 (VHH)
VHH: EVQLVESGGGLVQPGGSLTLSCETSGRHFDIDDMGWYRQAPGKQRELVACITTESSTTYADAVKGRFTISRDNPDNTVYLQMTNLKPEDTAVYYCNAEMHPRSLDYALGNRDYWGQGAPVTVSS
B4 showed a Kd in assay [4] of 3.72 nM. The same molecule registered a koff in assay [1] of 0.00079 s⁻¹. In addition, the IC50 stood at 3.51 nM in assay [3] and 1.65 nM in assay [2].

B5: nanobody NM1229 (VHH)
VHH: EVQLQESGGGLVQPGESLRLSCAASGRTHDWYTMGWFRQAPGKEREFVARINWSSGMTYYADSVKGRFTISRDNPKNTVYLQMNSLTPDDTAVYYCNVHPFTSPDYWGQGTRVTVSS
B5: the Kd in assay [4] was 53.2 nM. The molecule also yielded a koff in assay [1] of 0.00985 s⁻¹. The IC50 in assay [3] is 56.1 nM; in assay [2] it was 37.8 nM.

B6: nanobody NM1228 (VHH)
VHH: DVQLVESGGGLVRPGGSLRLSCESSGRHFDIDTMGWYRQAPGKQRELVASITSEKSTVYADALKGRFTISRDIPDNNVYLQMNNLKPEDTAVYYCNAKMDPHSLDYALGNQVFWGQGSLVTVSS
B6 displayed a koff in assay [1] of 0.00064 s⁻¹. Further, inhibition in assay [3] was half-maximal at 0.85 nM (IC50).

B7: nanobody NM1225 (VHH)
VHH: QVQLVESGGGLVQPGGSLRLSCAASGNILRVHDMGWYRQAPGKQREYVAMITHGGITNYIDSVKGRFTISRDNAKNTVYLQMNSLKPEDTAVYYCHAVLSSALNGVTETSSNWGQGTQVTVSS
Take B7: in assay [4], the Kd is 53700 nM. This molecule also returned a koff in assay [1] of 0.473 s⁻¹.

B8: nanobody NM1222 (VHH)
VHH: EVQLVESGGGLVRPGGSLRLSCVGSGFTFSGYAINWYRQAPGKALELVAGISNAGDLTHYEEAMKGRVAISRANDKNTVYLQMDDLKPEDTAVYRCHAPGVRVGTGERNDVWGQGAQVTVSS
B8: the affinity in assay [4], expressed as Kd, was 18 nM. In addition, in assay [1], the koff amounted to 0.00294 s⁻¹. The results for the IC50 in assay [3] and in assay [2] were 27.3 nM and 5.8 nM, respectively.

B9: nanobody NM1221 (VHH)
VHH: DVQLVESGGGLVQPGGSLTLSCVGSGFLFSGYAMNWYRQAPGKALELVAGISNAGDITHYEEAMKGRVAISRVNDKNTVYLQMDDLKPEDTAVYRCHAPGVRVASGERNDVWGQGTQVTVSS
The molecule B9 yielded a Kd in assay [4] of 22.7 nM. In addition, the koff in assay [1] is 0.00296 s⁻¹. Further, the IC50 in assay [3] is 43.3 nM; in assay [2], 10.1 nM.

B10: nanobody NM1230 (VHH)
VHH: QVQLVESGGGLVRPGGSLRLSCVGSGFTFSGYAMNWYRQAPGKALELVAGISNAGDLTHYEEPMKGRVAISRANDKNTVYLQMDDLKPEDTAVYRCHAPGVRVGTGERKDVWGQGAQVTVSS
B10 gave a koff in assay [1] of 0.00166 s⁻¹. Further, the IC50 in assay [3] worked out at 10.6 nM.
